Results on 30 sequences are retold here after paper PMC6602471.

The data set concerns the target T1, ETS1 (Homo sapiens) (UniProt P14921).
T1 sequence (P14921 whole entry, looked up): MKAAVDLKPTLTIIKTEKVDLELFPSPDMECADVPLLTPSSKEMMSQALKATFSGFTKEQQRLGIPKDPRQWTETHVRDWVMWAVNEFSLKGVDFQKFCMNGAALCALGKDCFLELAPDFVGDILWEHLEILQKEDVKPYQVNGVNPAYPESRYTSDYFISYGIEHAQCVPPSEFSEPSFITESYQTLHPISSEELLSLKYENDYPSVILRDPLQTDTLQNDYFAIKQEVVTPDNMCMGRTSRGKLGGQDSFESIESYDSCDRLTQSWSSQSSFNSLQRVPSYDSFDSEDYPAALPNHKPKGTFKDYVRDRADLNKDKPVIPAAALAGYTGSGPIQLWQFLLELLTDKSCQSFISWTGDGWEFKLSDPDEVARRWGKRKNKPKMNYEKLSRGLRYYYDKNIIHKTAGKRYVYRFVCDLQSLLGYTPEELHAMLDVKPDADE
Nature of the data set: PBM. Particulars: Custom protein-binding microarray; buffer, salt, pH and temperature not given in the material.
Take “CGGAAGTGTCGTAAACGTCGGATATCCGTTTCTTCTGTCTTGATTCGCTTGACGCTGCTG (double strand) [seq01_p29 G>T]”: the binding signal came out at 9.45 log signal.
With “CGGAAGTGTCGTAAACGTCGGATATCCGATTCTTCTGTCTTGATTCGCTTGACGCTGCTG (double strand) [seq01_p29 G>A]”, the binding signal was found to be 8.64 log signal.
Consider “CGGAAGTGTCGTAAACGTCGGATATACGGTTCTTCTGTCTTGATTCGCTTGACGCTGCTG (double strand) [seq01_p26 C>A]”, for which the binding signal turned out to be 9.21 log signal.
Take “GCTGCTGCGGTGCATACCCCACCGGATGTGACCCCGGTCTTGATTCGCTTGACGCTGCTG (double strand) [seq02_wt0]”: the binding signal came to 10.2 log signal.
As to “CGGAAGTGTCGTAAACGTCGGATTTCCGGTTCTTCTGTCTTGATTCGCTTGACGCTGCTG (double strand) [seq01_p24 A>T]”, the binding signal worked out at 12.5 log signal.
With “CGGAAGTGTCGTAAACGTCGGATATCCGCTTCTTCTGTCTTGATTCGCTTGACGCTGCTG (double strand) [seq01_p29 G>C]” the figure was 10.1 log signal; with “CGGAAGTGTCGTAAACGTCGGATATCCCGTTCTTCTGTCTTGATTCGCTTGACGCTGCTG (double strand) [seq01_p28 G>C]”, 8.7 log signal; with “CGGAAGTGTCGTAAACGTCGGATGTCCGGTTCTTCTGTCTTGATTCGCTTGACGCTGCTG (double strand) [seq01_p24 A>G]”, 9.65 log signal.
Consider “CGGAAGTGTCGTAAACGTCGGATATCCGGATCTTCTGTCTTGATTCGCTTGACGCTGCTG (double strand) [seq01_p30 T>A]”, for which the binding signal came out at 9.94 log signal.
With “CGGAAGTGTCGTAAACGTCGGCTATCCGGTTCTTCTGTCTTGATTCGCTTGACGCTGCTG (double strand) [seq01_p22 A>C]”, the binding signal is 8.79 log signal.
Take “CGGAAGTGTCGTAAACGTCGGGTATCCGGTTCTTCTGTCTTGATTCGCTTGACGCTGCTG (double strand) [seq01_p22 A>G]”: the binding signal is 10.5 log signal.
Take “CGGAAGTGTCGTAAACGTCGGATATCTGGTTCTTCTGTCTTGATTCGCTTGACGCTGCTG (double strand) [seq01_p27 C>T]”: the binding signal was 8.37 log signal.
Turning to “CGGAAGTGTCGTAAACGTCGGATATCCAGTTCTTCTGTCTTGATTCGCTTGACGCTGCTG (double strand) [seq01_p28 G>A]”, the binding signal is 8.64 log signal.
In the case of “CGGAAGTGTCGTAAACGTCGGATATCCGGGTCTTCTGTCTTGATTCGCTTGACGCTGCTG (double strand) [seq01_p30 T>G]”, the binding signal was found to be 10.2 log signal.
The same measure for “GGAAAAAGGCCCAGGGTAACACCGGAAGTGGGCTTAGTCTTGATTCGCTTGACGCTGCTG (double strand) [seq04_wt0]”: 12 log signal.
With “CGGAAGTGTCGTAAACGTCGGATATCCGGCTCTTCTGTCTTGATTCGCTTGACGCTGCTG (double strand) [seq01_p30 T>C]” the figure was 10.7 log signal; with “CGGAAGTGTCGTAAACGTCGGATACCCGGTTCTTCTGTCTTGATTCGCTTGACGCTGCTG (double strand) [seq01_p25 T>C]”, 8.31 log signal; with “CGGAAGTGTCGTAAACGTCGGATATCCTGTTCTTCTGTCTTGATTCGCTTGACGCTGCTG (double strand) [seq01_p28 G>T]”, 10.1 log signal.
Regarding “CGGAAGTGTCGTAAACGTCGGTTATCCGGTTCTTCTGTCTTGATTCGCTTGACGCTGCTG (double strand) [seq01_p22 A>T]”, the binding signal came out at 9.21 log signal.
Turning to “CGGAAGTGTCGTAAACGTCGGATATTCGGTTCTTCTGTCTTGATTCGCTTGACGCTGCTG (double strand) [seq01_p26 C>T]”, the binding signal was 8.55 log signal.
Regarding “CGGAAGTGTCGTAAACGTCGGATAGCCGGTTCTTCTGTCTTGATTCGCTTGACGCTGCTG (double strand) [seq01_p25 T>G]”, the binding signal came out at 8.18 log signal.
As to “CGGAAGTGTCGTAAACGTCGGATATCAGGTTCTTCTGTCTTGATTCGCTTGACGCTGCTG (double strand) [seq01_p27 C>A]”, the binding signal turned out to be 8.51 log signal.
As to “CGGAAGTGTCGTAAACGTCGGAGATCCGGTTCTTCTGTCTTGATTCGCTTGACGCTGCTG (double strand) [seq01_p23 T>G]”, the binding signal was 8.83 log signal.
Regarding “CGGAAGTGTCGTAAACGTCGGACATCCGGTTCTTCTGTCTTGATTCGCTTGACGCTGCTG (double strand) [seq01_p23 T>C]”, the binding signal amounted to 12.6 log signal.
With “CGGAAGTGTCGTAAACGTCGGAAATCCGGTTCTTCTGTCTTGATTCGCTTGACGCTGCTG (double strand) [seq01_p23 T>A]” the figure was 9.71 log signal; with “CGGAAGTGTCGTAAACGTCGGATAACCGGTTCTTCTGTCTTGATTCGCTTGACGCTGCTG (double strand) [seq01_p25 T>A]”, 8.34 log signal; with “CGGAAGTGTCGTAAACGTCGGATATGCGGTTCTTCTGTCTTGATTCGCTTGACGCTGCTG (double strand) [seq01_p26 C>G]”, 8.38 log signal.
With “CGGAAGTGTCGTAAACGTCGGATATCGGGTTCTTCTGTCTTGATTCGCTTGACGCTGCTG (double strand) [seq01_p27 C>G]” the figure was 8.65 log signal.
On to “CGGAAGTGTCGTAAACGTCGGATATCCGGTTCTTCTGTCTTGATTCGCTTGACGCTGCTG (double strand) [seq01_wt0]”, for which the binding signal was determined as 11.9 log signal.
“CGGAAGTGTCGTAAACGTCGGATCTCCGGTTCTTCTGTCTTGATTCGCTTGACGCTGCTG (double strand) [seq01_p24 A>C]”: the binding signal was determined as 8.47 log signal.
